# Substitutions are numbered along the chain they refer to. Names may count otherwise.
# T1: human beta-Klotho (Homo sapiens, UniProt Q86Z14)
# T1 sequence (Q86Z14 1-1044): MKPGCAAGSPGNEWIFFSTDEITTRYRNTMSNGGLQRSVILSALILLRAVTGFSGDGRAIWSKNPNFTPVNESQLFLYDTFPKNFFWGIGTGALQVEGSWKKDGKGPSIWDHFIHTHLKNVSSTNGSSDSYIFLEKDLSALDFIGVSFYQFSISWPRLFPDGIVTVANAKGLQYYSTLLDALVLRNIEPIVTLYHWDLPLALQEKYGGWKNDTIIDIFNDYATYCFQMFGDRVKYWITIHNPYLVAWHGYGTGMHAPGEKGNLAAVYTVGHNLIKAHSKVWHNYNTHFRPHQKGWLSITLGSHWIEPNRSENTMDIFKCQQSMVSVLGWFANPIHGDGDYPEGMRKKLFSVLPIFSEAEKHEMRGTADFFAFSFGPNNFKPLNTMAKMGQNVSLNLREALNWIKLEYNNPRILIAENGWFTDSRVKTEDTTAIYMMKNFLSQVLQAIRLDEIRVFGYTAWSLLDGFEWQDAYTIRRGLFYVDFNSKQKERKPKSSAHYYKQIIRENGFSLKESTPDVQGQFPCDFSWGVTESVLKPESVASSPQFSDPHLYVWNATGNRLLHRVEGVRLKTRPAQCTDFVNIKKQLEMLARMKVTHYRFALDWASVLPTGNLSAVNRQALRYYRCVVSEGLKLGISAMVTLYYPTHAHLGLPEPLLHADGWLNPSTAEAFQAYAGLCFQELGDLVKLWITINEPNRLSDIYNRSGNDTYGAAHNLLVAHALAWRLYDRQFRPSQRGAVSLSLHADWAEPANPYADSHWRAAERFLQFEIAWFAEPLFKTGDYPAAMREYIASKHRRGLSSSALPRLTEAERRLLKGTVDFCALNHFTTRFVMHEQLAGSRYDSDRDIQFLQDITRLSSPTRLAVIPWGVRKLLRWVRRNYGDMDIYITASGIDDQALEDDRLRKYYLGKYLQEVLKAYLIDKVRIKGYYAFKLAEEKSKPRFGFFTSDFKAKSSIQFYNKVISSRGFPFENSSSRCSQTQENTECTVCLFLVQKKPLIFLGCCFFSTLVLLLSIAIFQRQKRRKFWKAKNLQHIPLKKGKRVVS
# B1: Ab0343: IgG4 PE; 16H7 VL (N25S, D49A, D50A, D91A, N93S); 16H7 VH (M34V, I83T, D109E) (antibody)
# VH: QVTLKESGPVLVKPTETLTLTCTVSGFSLNNARVGVSWIRQPPGKALEWLAHIFSNDEKSYSTSLKSRLTISKDTSKSQVVLTMTNMDPVDTATYYCARSVVTGGYYYEGMDVWGQGTTVTVSS
# light: SYVLTQPPSVSVAPGQTARITCGGSNIGSESVHWYQQKPGQAPVLVVYAASDRPSGIPERFSGSNSGNTATLTISRVEAGDEADYYCQVWAGSSDHVVFGGGTKLTVLGQPKANPTVTLFPPSSEELQANKATLVCLISDFYPGAVTVAWKADGSPVKAGVETTKPSKQSNNKYAASSYLSLTPEQWKSHRSYSCQVTHEGSTVEKTVAPTECS
# B2: Ab0344: IgG4 PE; 16H7 VL (N25S, D49A, D50A, D91E, N93S); 16H7 VH (M34V, I83T, D109E) (antibody)
# VH: B1 VH
# light: B1 light with A91E
# B3: Ab0352: IgG4 PE; 16H7 VL (N25S, D49E, D50E, D91E, N93S); 16H7 VH (M34V, I83T, D109E) (antibody)
# VH: B1 VH
# light: B1 light with A49E, A50E, A91E
# B4: Ab0354: IgG4 PE; 16H7 VL (N25S, D49E, D50E, D91H, N93S); 16H7 VH (M34V, I83T, D109E) (antibody)
# VH: B1 VH
# light: B1 light with A49E, A50E, A91H
# B5: Ab0345: IgG4 PE; 16H7 VL (N25S, D49A, D50A, D91E, N93A); 16H7 VH (M34V, I83T, D109E) (antibody)
# VH: B1 VH
# light: B1 light with A91E, S93A
# B6: Ab0346: IgG4 PE; 16H7 VL (N25S, D49A, D50H, D91A, N93S); 16H7 VH (M34V, I83T, D109E) (antibody)
# VH: B1 VH
# light: B1 light with A50H
# B7: Ab0353: IgG4 PE; 16H7 VL (N25S, D49E, D50E, D91E, N93A); 16H7 VH (M34V, I83T, D109E) (antibody)
# VH: B1 VH
# light: B1 light with A49E, A50E, A91E, S93A
# B8: Ab0360: IgG4 PE; 16H7 VL (N25S, D49E, D50H, D91E, N93S); 16H7 VH (M34V, I83T, D109E) (antibody)
# VH: B1 VH
# light: B1 light with A49E, A50H, A91E
# B9: Ab0350: IgG4 PE; 16H7 VL (N25S, D49E, D50E, D91A, N93S); 16H7 VH (M34V, I83T, D109E) (antibody)
# VH: B1 VH
# light: B1 light with A49E, A50E
# B10: Ab0347: IgG4 PE; 16H7 VL (N25S, D49A, D50S, D91A, N93S); 16H7 VH (M34V, I83T, D109E) (antibody)
# VH: B1 VH
# light: B1 light with A50S
# B11: Ab0364: IgG4 PE; 16H7 VL (N25A, D49E, D50E, D91E, N93S); 16H7 VH (M34V, I83T, D109E) (antibody)
# VH: B1 VH
# light: B1 light with S25A, A49E, A50E, A91E
# B12: Ab0363: IgG4 PE; 16H7 VL (N25A, D49S, D50A, D91A, N93A); 16H7 VH (M34V, I83T, D109E) (antibody)
# VH: B1 VH
# light: B1 light with S25A, A49S, S93A
# B13: Ab0298: IgG4 PE; 16H7 VL (N25S, D49Y, D50E); 16H7 VH (M34V, I83T, D109E) (antibody)
# VH: B1 VH
# light: B1 light with A49Y, A50E, A91D, S93N
# B14: Ab0358: IgG4 PE; 16H7 VL (N25S, D49E, D50A, D91H, N93S); 16H7 VH (M34V, I83T, D109E) (antibody)
# VH: B1 VH
# light: B1 light with A49E, A91H
# B15: Ab0349: IgG4 PE; 16H7 VL (N25S, D49E, D50E, D91T, N93S); 16H7 VH (M34V, I83T, D109E) (antibody)
# VH: B1 VH
# light: B1 light with A49E, A50E, A91T
# B16: Ab0361: IgG4 PE; 16H7 VL (N25S, D49E, D50S, D91E, N93S); 16H7 VH (M34V, I83T, D109E) (antibody)
# VH: B1 VH
# light: B1 light with A49E, A50S, A91E
# B17: Ab0312: IgG4 PE; 16H7 VL (N25S, D49Y, D50E, N93E); 16H7 VH (M34V, I83T, D109E) (antibody)
# VH: B1 VH
# light: B1 light with A49Y, A50E, A91D, S93E
# B18: Ab0357: IgG4 PE; 16H7 VL (N25S, D49E, D50A, D91E, N93S); 16H7 VH (M34V, I83T, D109E) (antibody)
# VH: B1 VH
# light: B1 light with A49E, A91E
# B19: Ab0359: IgG4 PE; 16H7 VL (N25S, D49E, D50H, D91A, N93S); 16H7 VH (M34V, I83T, D109E) (antibody)
# VH: B1 VH
# light: B1 light with A49E, A50H
# B20: Ab0348: IgG4 PE; 16H7 VL (N25S, D49E, D50E, D91T, N93E); 16H7 VH (M34V, I83T, D109E) (antibody)
# VH: B1 VH
# light: B1 light with A49E, A50E, A91T, S93E
# B21: Ab0362: IgG4 PE; 16H7 VL (N25S, D49T, D50E, D91A, N93S); 16H7 VH (M34V, I83T, D109E) (antibody)
# VH: B1 VH
# light: B1 light with A49T, A50E
# B22: Ab0355: IgG4 PE; 16H7 VL (N25S, D49E, D50Y, D91E, N93S); 16H7 VH (M34V, I83T, D109E) (antibody)
# VH: B1 VH
# light: B1 light with A49E, A50Y, A91E
# B23: Ab0356: IgG4 PE; 16H7 VL (N25S, D49E, D50A, D91A, N93S); 16H7 VH (M34V, I83T, D109E) (antibody)
# VH: B1 VH
# light: B1 light with A49E
# Biological target: T1, human beta-Klotho
# Assay: SPR off-rate screening of antibody mutants (human beta-Klotho captured by anti-His antibody)
# Assay type: binding
# Details: mean, n=3
# Outline: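 Off-rates (kd) were obtained by single exponential fitting of dissociation curves. Mutant antibodies at 50 nmol/L flowed over beta-Klotho held by an immobilized anti-His antibody, with 240 sec association and 300 sec dissociation.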
row,koff human KLB,Molecule
1,invalid fit,B1
2,0.00168 s⁻¹,B2
3,0.0004194 s⁻¹,B3
4,0.00158 s⁻¹,B4
5,0.00188 s⁻¹,B5
6,invalid fit,B6
7,0.0003799 s⁻¹,B7
8,0.00192 s⁻¹,B8
9,invalid fit,B9
10,invalid fit,B10
11,0.00169 s⁻¹,B11
12,invalid fit,B12
13,0.0016 s⁻¹,B13
14,0.0004541 s⁻¹,B14
15,invalid fit,B15
16,0.00163 s⁻¹,B16
17,0.0005302 s⁻¹,B17
18,0.00185 s⁻¹,B18
19,invalid fit,B19
20,invalid fit,B20
21,invalid fit,B21
22,0.00195 s⁻¹,B22
23,invalid fit,B23
